Patent publication US5985836A, “Alpha-1 proteinase inhibitor binding peptides” (Bayer Corporation, priority 1998, dated 1999)
One block for each substance: values may come before it. Ends that are not written are not given here.

Legend:
A1PI [1] = target: T1, A1PI (Homo sapiens, UniProt P01009); test: A1PI binding on peptide-resin column, injection of 1 mg A1PI in equilibration buffer; details: 1 mg A1PI in equilibration buffer; for Percent A1PI Eluted by Fraction Based on Absorbance at 280 nm, 1M NaCl / Percent A1PI Eluted by Fraction Based on Absorbance at 280 nm, 2% Acetic Acid / Percent A1PI Eluted by Fraction Based on Absorbance at 280 nm, Flowthrough: 4° C.; for Percent A1PI Eluted by Fraction, 1M NaCl / Percent A1PI Eluted by Fraction, 2% Acetic Acid / Percent A1PI Eluted by Fraction, Flowthrough: 20° C.
T1 construct: Human plasma is currently the only approved source of therapeutic AlPI
T1 sequence (P01009 25-418): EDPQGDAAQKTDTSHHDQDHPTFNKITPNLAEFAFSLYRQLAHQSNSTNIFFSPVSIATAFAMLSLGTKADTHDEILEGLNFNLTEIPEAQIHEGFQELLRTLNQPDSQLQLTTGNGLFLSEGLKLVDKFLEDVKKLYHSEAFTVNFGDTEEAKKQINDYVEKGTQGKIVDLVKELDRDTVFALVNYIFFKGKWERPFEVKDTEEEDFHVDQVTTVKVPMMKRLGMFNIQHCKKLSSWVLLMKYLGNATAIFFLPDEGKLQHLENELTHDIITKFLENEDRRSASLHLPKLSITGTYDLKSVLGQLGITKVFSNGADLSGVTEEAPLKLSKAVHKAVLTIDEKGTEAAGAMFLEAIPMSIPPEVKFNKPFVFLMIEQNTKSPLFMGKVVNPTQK
How it was run: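 Percent of total eluted A1PI per fraction (flowthrough, NaCl steps, 2% acetic acid) determined by A280 integration or immunonephelometry. Columns of peptide-derivatized A-Totda-Toyopearl resin (0.1 mmole/g) received 1 mg A1PI at 4 °C or 20 °C, flow 865 or 523 μl/min.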

A1PI [2] = target: T1, A1PI; test: A1PI purification from 5 mg hSA + 1 mg A1PI on peptide column, A1PI mass balance; format: binding; details: A1PI, 5 mg hSA + 1 mg A1PI; for Percent Eluted by Fraction, 1M NaCl / Percent Eluted by Fraction, 2% Ac. Acid / Percent Eluted by Fraction, 3M NaCl / Percent Eluted by Fraction, Flow: relative to total eluted
How it was run: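 Mass balance by immunonephelometry of fractions from step elutions (1M NaCl, 3M NaCl, 2% acetic acid, neutralised with Tris) at 865 μl/min. Sample was a mixture of 1 mg A1PI and 5 mg hSA held 10 min on peptide-derivatised Toyopearl columns (0.1 mmole/g) at 4 °C or 20 °C.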

A1PI [3] = target: T1, A1PI; test: Purification of A1PI from Effluent II+III on peptide column, A1PI mass balance; format: binding; details: A1PI, 1 ml Eff. II+III, 4° C.; for Mass Protein per Eluate Fraction, 1M NaCl / Mass Protein per Eluate Fraction, 2% Acetic Acid / Mass Protein per Eluate Fraction, Flow: * as in Tables 4, 5 (below detection limit)
How it was run: (§1)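 Run at 4° C: Effluent II+III (1 ml, 20% ethanol) loaded with a 10 min residence. Elution at 865 μl/min, in sequence 1M NaCl, 3M NaCl, 2% acetic acid; A1PI, IgA, IgG and haptoglobin accounted for in each fraction.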

[4] = target: T2, apolipoprotein alpha-1 (Apo A-1) (Homo sapiens, UniProt P02647); test: Purification from Effluent II+III, Apo A-1 mass balance; format: binding; details: 1 ml Eff. II+III, 4° C.; for Mass Protein per Eluate Fraction, 2% Acetic Acid: * as in Tables 4, 5 (below detection limit)
T2 construct: Eff; II+III is a process intermediate in the Cohn plasma fractionation process; tissue Bayer Corporation (Clayton, N.C.); host or cells: plasma fraction: Cohn Effluent II+III
T2 sequence (P02647 19-267): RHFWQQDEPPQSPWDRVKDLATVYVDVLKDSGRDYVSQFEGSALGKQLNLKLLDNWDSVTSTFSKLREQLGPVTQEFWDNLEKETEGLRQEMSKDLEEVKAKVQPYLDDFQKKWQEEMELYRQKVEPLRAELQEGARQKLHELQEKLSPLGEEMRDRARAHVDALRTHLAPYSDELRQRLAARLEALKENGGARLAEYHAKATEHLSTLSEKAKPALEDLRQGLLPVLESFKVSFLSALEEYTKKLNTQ
How it was run: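 Feed: 1 ml Eff. II+III (20% EtOH, 20-25 mg/ml hSA, ~1 mg/ml A1PI). 10 min residence, then 865 μl/min; steps 1M NaCl / 3M NaCl / 2% acetic acid; 4° C. Mass balance per fraction.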

Immunoglobulin A (IgA) = test: Purification from Effluent II+III, IgA mass balance; format: binding, human; details: 1 ml Eff. II+III, 4° C.; for Mass Protein per Eluate Fraction, 1M NaCl / Mass Protein per Eluate Fraction, 2% Acetic Acid / Mass Protein per Eluate Fraction, Flow: * as in Tables 4, 5 (below detection limit)
How it was run: as §1

Immunoglobulin G (IgG) = test: Purification from Effluent II+III, IgG mass balance; format: binding, human; details: 1 ml Eff. II+III, 4° C.
How it was run: as §1

A1PI [5] = target: T1, A1PI; test: Capture and elution of active A1PI with 2M urea buffer (elastase inhibition activity assay and immunonephelometry); format: binding; details: 4° C.; for Mass A1PI in Urea Eluate (mg), Activity / Mass A1PI in Urea Eluate (mg), Nephelometry: 1 mg A1PI, eluted with 2M urea, pH 6; for Mass A1PI in Urea Eluate (mg), Activity: elastase inhibition activity assay; for Mass A1PI in Urea Eluate (mg), Nephelometry: immunonephelometry; for Specific Activity: mass of A1PI by activity assay relative to immunonephelometry, urea eluate
A1PI [6] = target: T1, A1PI; test: A1PI yield from dialyzed (aqueous) Effluent II+III; format: binding; details: 4° C.
Experimental: Effluent II+III was dialyzed against equilibration buffer at 4° C. to remove the ethanol using a 15,000 molecular weight cut-off membrane. Nephelometry of the Eff. […] A portion of the identified sequences were assayed under the same conditions applied for neat Eff. II+III at 4° C. […] II+III compared to the neat, ethanol-containing feed. The binding strength differed for the aqueous feed as more AlPI eluted in 1M NaCl for the aqueous feed. The AlPI eluted in the 1M NaCl fractions was not as enriched as that eluted in the acid eluates.

[7] = 20° C., * Below detection limit
[8] = * as in Tables 4, 5 (below detection limit)
[9] = 1 ml dialyzed Eff. II+III (ethanol removed)
[10] = A1PI, 1 ml dialyzed Eff. II+III

Percent A1PI Eluted by Fraction Based on Absorbance at 280 nm, 1M NaCl (A1PI [1]): 57% | Percent A1PI Eluted by Fraction Based on Absorbance at 280 nm, 2% Acetic Acid (A1PI [1]): 43% | Percent A1PI Eluted by Fraction Based on Absorbance at 280 nm, Flowthrough (A1PI [1]): 0% | Percent A1PI Eluted by Fraction, 1M NaCl (A1PI [1]): 64% | Percent A1PI Eluted by Fraction, 2% Acetic Acid (A1PI [1]): 36% | Percent A1PI Eluted by Fraction, Flowthrough (A1PI [1]): 0% | Mass Protein per Eluate Fraction, 1M NaCl (A1PI [2]; 4° C., * Below detection limit): 0.27 mg | Mass Protein per Eluate Fraction, 2% Ac. Acid (A1PI [2]; 4° C., * Below detection limit): 0.64 mg | Mass Protein per Eluate Fraction, 3M NaCl (A1PI [2]; 4° C., * Below detection limit): 0.04 mg | Mass Protein per Eluate Fraction, Flow (A1PI [2]; 4° C., * Below detection limit): 0.03 mg | Percent Eluted by Fraction, 1M NaCl (A1PI [2]; 4° C.): 27% | Percent Eluted by Fraction, 2% Ac. Acid (A1PI [2]; 4° C.): 66% | Percent Eluted by Fraction, 3M NaCl (A1PI [2]; 4° C.): 4% | Percent Eluted by Fraction, Flow (A1PI [2]; 4° C.): 3% | Mass Protein per Eluate Fraction, 1M NaCl (A1PI [2]; [7]): 0.11 mg | Mass Protein per Eluate Fraction, 2% Ac. Acid (A1PI [2]; [7]): 0.44 mg | Mass Protein per Eluate Fraction, Flow (A1PI [2]; [7]): 0.29 mg | Percent Eluted by Fraction, 1M NaCl (A1PI [2]; 20° C.): 12% | Percent Eluted by Fraction, 2% Ac. Acid (A1PI [2]; 20° C.): 53% | Percent Eluted by Fraction, 3M NaCl (A1PI [2]; 20° C.): 0% | Percent Eluted by Fraction, Flow (A1PI [2]; 20° C.): 35% | Percent Eluted by Fraction, 1M NaCl (A1PI [3]): 5% | Percent Eluted by Fraction, 2% Acetic Acid (A1PI [3]): 80% | Percent Eluted by Fraction, 3M NaCl (A1PI [3]): 0% | Percent Eluted by Fraction, Flow (A1PI [3]): 15% | Mass Protein per Eluate Fraction, 1M NaCl (A1PI [3]): 0.05 mg | Mass Protein per Eluate Fraction, 2% Acetic Acid (A1PI [3]): 0.81 mg | Mass Protein per Eluate Fraction, Flow (A1PI [3]): 0.15 mg | Percent Eluted by Fraction, 1M NaCl [4]: 0% | Percent Eluted by Fraction, 2% Acetic Acid [4]: 100% | Percent Eluted by Fraction, 3M NaCl [4]: 0% | Percent Eluted by Fraction, Flow [4]: 0% | Mass Protein per Eluate Fraction, 2% Acetic Acid [4]: 0.37 mg | Mass A1PI in Urea Eluate (mg), Activity (A1PI [5]): 0.67 mg | Mass A1PI in Urea Eluate (mg), Nephelometry (A1PI [5]): 0.80 mg | Specific Activity (A1PI [5]): 0.84 mg/mg
Substance: RFIYYT
Percent Eluted by Fraction, 1M NaCl (Immunoglobulin A (IgA)): 31% | Percent Eluted by Fraction, 2% Acetic Acid (Immunoglobulin A (IgA)): 38% | Percent Eluted by Fraction, 3M NaCl (Immunoglobulin A (IgA)): 0% | Percent Eluted by Fraction, Flow (Immunoglobulin A (IgA)): 31% | Mass Protein per Eluate Fraction, 1M NaCl (Immunoglobulin A (IgA)): 0.10 mg | Mass Protein per Eluate Fraction, 2% Acetic Acid (Immunoglobulin A (IgA)): 0.12 mg | Mass Protein per Eluate Fraction, Flow (Immunoglobulin A (IgA)): 0.10 mg | Percent Eluted by Fraction, 1M NaCl (Immunoglobulin G (IgG)): 7% | Percent Eluted by Fraction, 2% Acetic Acid (Immunoglobulin G (IgG)): 7% | Percent Eluted by Fraction, 3M NaCl (Immunoglobulin G (IgG)): 0% | Percent Eluted by Fraction, Flow (Immunoglobulin G (IgG)): 86% | Mass Protein per Eluate Fraction, 1M NaCl (Immunoglobulin G (IgG); [8]): 0.02 mg | Mass Protein per Eluate Fraction, 2% Acetic Acid (Immunoglobulin G (IgG); [8]): 0.02 mg | Mass Protein per Eluate Fraction, Flow (Immunoglobulin G (IgG); [8]): 0.23 mg

Percent A1PI Eluted by Fraction Based on Absorbance at 280 nm, 1M NaCl (A1PI [1]): 40% | Percent A1PI Eluted by Fraction Based on Absorbance at 280 nm, 2% Acetic Acid (A1PI [1]): 60% | Percent A1PI Eluted by Fraction Based on Absorbance at 280 nm, Flowthrough (A1PI [1]): 0% | Percent A1PI Eluted by Fraction, 1M NaCl (A1PI [1]): 35% | Percent A1PI Eluted by Fraction, 2% Acetic Acid (A1PI [1]): 65% | Percent A1PI Eluted by Fraction, Flowthrough (A1PI [1]): 0% | Mass Protein per Eluate Fraction, 1M NaCl (A1PI [2]; 4° C., * Below detection limit): 0.27 mg | Mass Protein per Eluate Fraction, 2% Ac. Acid (A1PI [2]; 4° C., * Below detection limit): 0.71 mg | Percent Eluted by Fraction, 1M NaCl (A1PI [2]; 4° C.): 28% | Percent Eluted by Fraction, 2% Ac. Acid (A1PI [2]; 4° C.): 72% | Percent Eluted by Fraction, 3M NaCl (A1PI [2]; 4° C.): 0% | Percent Eluted by Fraction, Flow (A1PI [2]; 4° C.): 0% | Mass Protein per Eluate Fraction, 1M NaCl (A1PI [2]; [7]): 0.21 mg | Mass Protein per Eluate Fraction, 2% Ac. Acid (A1PI [2]; [7]): 0.50 mg | Mass Protein per Eluate Fraction, Flow (A1PI [2]; [7]): 0.22 mg | Percent Eluted by Fraction, 1M NaCl (A1PI [2]; 20° C.): 23% | Percent Eluted by Fraction, 2% Ac. Acid (A1PI [2]; 20° C.): 53% | Percent Eluted by Fraction, 3M NaCl (A1PI [2]; 20° C.): 0% | Percent Eluted by Fraction, Flow (A1PI [2]; 20° C.): 24% | Percent Eluted by Fraction, 1M NaCl (A1PI [3]): 9% | Percent Eluted by Fraction, 2% Acetic Acid (A1PI [3]): 66% | Percent Eluted by Fraction, 3M NaCl (A1PI [3]): 0% | Percent Eluted by Fraction, Flow (A1PI [3]): 25% | Mass Protein per Eluate Fraction, 1M NaCl (A1PI [3]): 0.07 mg | Mass Protein per Eluate Fraction, 2% Acetic Acid (A1PI [3]): 0.50 mg | Mass Protein per Eluate Fraction, Flow (A1PI [3]): 0.19 mg | Percent Eluted by Fraction, 1M NaCl [4]: 0% | Percent Eluted by Fraction, 2% Acetic Acid [4]: 100% | Percent Eluted by Fraction, 3M NaCl [4]: 0% | Percent Eluted by Fraction, Flow [4]: 0% | Mass Protein per Eluate Fraction, 2% Acetic Acid [4]: 0.39 mg | Mass A1PI per Eluate Fraction, 1M NaCl (A1PI [6]; [9]): 0.15 mg | Mass A1PI per Eluate Fraction, 2% Acetic Acid (A1PI [6]; [9]): 0.25 mg | Mass A1PI per Eluate Fraction, Flowthrough (A1PI [6]; [9]): 0.21 mg | Percent Eluted by Fraction, 1M NaCl (A1PI [6]; [10]): 24% | Percent Eluted by Fraction, 2% Acetic Acid (A1PI [6]; [10]): 41% | Percent Eluted by Fraction, Flowthrough (A1PI [6]; [10]): 35% | Mass A1PI in Urea Eluate (mg), Activity (A1PI [5]): 0.67 mg | Mass A1PI in Urea Eluate (mg), Nephelometry (A1PI [5]): 0.79 mg | Specific Activity (A1PI [5]): 0.86 mg/mg
Substance: RYRIFI
Percent Eluted by Fraction, 1M NaCl (Immunoglobulin A (IgA)): 17% | Percent Eluted by Fraction, 2% Acetic Acid (Immunoglobulin A (IgA)): 60% | Percent Eluted by Fraction, 3M NaCl (Immunoglobulin A (IgA)): 0% | Percent Eluted by Fraction, Flow (Immunoglobulin A (IgA)): 22% | Mass Protein per Eluate Fraction, 1M NaCl (Immunoglobulin A (IgA)): 0.06 mg | Mass Protein per Eluate Fraction, 2% Acetic Acid (Immunoglobulin A (IgA)): 0.23 mg | Mass Protein per Eluate Fraction, Flow (Immunoglobulin A (IgA)): 0.08 mg | Percent Eluted by Fraction, 1M NaCl (Immunoglobulin G (IgG)): 0% | Percent Eluted by Fraction, 2% Acetic Acid (Immunoglobulin G (IgG)): 0% | Percent Eluted by Fraction, 3M NaCl (Immunoglobulin G (IgG)): 0% | Percent Eluted by Fraction, Flow (Immunoglobulin G (IgG)): 100% | Mass Protein per Eluate Fraction, Flow (Immunoglobulin G (IgG); [8]): 0.24 mg
